Data published in US12246067B2, “Neoantigens and uses thereof” (priority 2018, dated 2025).

Experiments:
[1] = tested on: ovarian carcinoma patients; conditions: poly-ICLC in combination with a NYESO-1 peptide vaccine (in addition to Montanide); phase 1 study; cited from earlier work
humans = conditions: cited from earlier work
HLA-A02:01 [2] = biological target: T1, HLA-A02:01 (Homo sapiens, UniProt P04439, D140Y/D185E/D98H/E176V/E277Q/G131W/G231S/I119V/I121R/I166T/I218V/L300P/L318F/N151K/N90K/P208A/P217A/Q86G/Q94H/R138H/R169H/T345S); assay: Stability of neoepitopes with the HLA allele; format: binding; conditions: HLA allele A02.01; mutant KRAS peptides (Example 9)
Procedure: (§1) Multiple peptides containing the neoepitopes in the table below were expressed or loaded onto antigen presenting cells (APCs). Mass spectrometry was then performed and the affinity of the neoepitopes for the indicated HLA alleles and stability of the neoepitopes with the HLA alleles was determined.

HLA-A02:01 [3] = biological target: T1, HLA-A02:01; assay: Affinity of neoepitopes for the indicated HLA allele; format: binding; conditions: HLA allele A02.01; mutant KRAS peptides (Example 9)
Procedure: as §1

Substance	Patients showing induction of CD4+ and CD8+ T cell, as well as antibody responses to the peptide [1] [%]	CD4+ and CD8+ responses in humans (humans)	Measured stability (HLA-A02:01 [2]) [h]	Measured Affinity (HLA-A02:01 [3]) [nM]
poly-ICLC	> 90	can induce durable CD4^+ and CD8^+ responses	–	–
LVVVGADGV	–	–	0.0	977.4
LVVVGAVGV	–	–	0.6	682.5
LVVVGACGV	–	–	0.6	667.1
